This note sets out measurements from PMC11662662.

The target of the assay is H3K23ub mononucleosomes (H3 'K23ub' thioether mimic), P68431;P0CG48;P04908;O60814;P62805. The assay can be described thus: Alpha-screen proximity assay.

As for “recombinant DNMT1 RFTS domain WT (His-MBP-RFTS) (from UniProt P26358) P378A; L381A”, the Kd (usually the constant that tells how readily two partners part at equilibrium) came to 140 nM.
